Measured values published in article PMC7344962 (2020).
Residue numbers refer to the chain shown, from its start.

T1: major surface antigen 1 (SAG1) of Toxoplasma gondii (Toxoplasma gondii, UniProt P13664 48-336)
T1 chain: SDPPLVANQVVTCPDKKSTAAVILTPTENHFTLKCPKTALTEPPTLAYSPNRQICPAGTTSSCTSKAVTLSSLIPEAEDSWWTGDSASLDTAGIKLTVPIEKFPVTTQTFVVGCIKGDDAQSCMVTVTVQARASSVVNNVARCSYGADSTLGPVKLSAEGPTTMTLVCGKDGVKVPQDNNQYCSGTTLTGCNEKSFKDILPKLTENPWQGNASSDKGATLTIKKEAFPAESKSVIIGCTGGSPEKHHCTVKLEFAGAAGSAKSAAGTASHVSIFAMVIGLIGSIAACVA

B1: scFv S1D4 (scFv, V domains shown)
VH: QVQLQQSGAELVRPGTSVKISCKASGYTFTDYGMHWVKQRPGHGLEWIGIISTYSGDASYNQKFKGKATMTVDKSSSTAYMQLSSLTSEDSAVYYCARSSTWYYFDYWGQGTLVTVSA
VL: DIQMTQTPSSLSASLGDRVTISCRASQDISNYLNWYQQKPDGTVKLLIYYTSRLHSGVPSRFSGSGSGTDYSLTISNLEPEDIATYYCQQGNTLPYTFGGGTKLEIK
B2: scFv S1C4 (scFv, V domains shown)
VH: B1 VH with T16V, A24G, Q82E, S84A, S85R, V93I, L113T, V114L, A118S
VL: B1 VL
B3: scFv S1A4 (scFv, V domains shown)
VH: QVQLQQSGAELVRPGVSVKISCKGSGYTFTDYGMHWVKQSHAKSLEWIGIISTYSGDASYNQKFKGKATMTVDKSSSTAYMELARLTSEDSAIYYCARSSTWYYFDYWGQGTTLTVSS
VL: B1 VL
B4: scFv S1B4 (scFv, V domains shown)
VH: B1 VH with R40S, P41H, G42A, H43K, G44S
VL: B1 VL
B5: scFv S1A0 (scFv, V domains shown)
VH: B3 VH
VL: B1 VL with M4V, P8T, P80Q, Y87F

Target: T1, major surface antigen 1 (SAG1) of …
Test: SPR

Question: For B1, which Kd is on record?
Answer: The Kd was 400 nM.

Target: T1, major surface antigen 1 (SAG1) of …
Test: SPR
Remark: another data set of the same source

Question: B2 was tested. Which Kd did it give?
Answer: The Kd was 61 nM.

Question: For B3, which Kd is on record?
Answer: The Kd was 236 nM.

Question: Which Kd does the source give for B4 here?
Answer: The Kd was 323 nM.

Target: T1, major surface antigen 1 (SAG1) of …
Test: SPR; Langmuir 1:1 fit

Question: For B2, which Kd is on record?
Answer: The Kd was 61 nM.

Question: With B1 as the binder, how does the Kd read?
Answer: Its Kd is 400 nM.

Question: For B3, which Kd is on record?
Answer: Its Kd is 236 nM.

Question: For B4, which Kd is on record?
Answer: Its Kd is 323 nM.

Target: T1, major surface antigen 1 (SAG1) of …
Test: SPR; two-state fit (kd1)

Question: For B5, which koff is on record?
Answer: Its koff is 0.0137 s⁻¹.

Question: With B2 as the binder, how does the koff read?
Answer: Its koff is 0.0158 s⁻¹.

Question: How did the koff turn out when B1 was run?
Answer: Its koff is 0.0183 s⁻¹.

Question: For B3, which koff is on record?
Answer: Its koff is 0.0142 s⁻¹.

Question: With B4 as the binder, how does the koff read?
Answer: Its koff is 0.0255 s⁻¹.

Target: T1, major surface antigen 1 (SAG1) of …
Test: SPR; two-state fit (KDapp)

Question: For B5, which Kd is on record?
Answer: The Kd was 181 nM.

Question: With B2 as the binder, how does the Kd read?
Answer: Its Kd is 59 nM.

Question: With B1 as the binder, how does the Kd read?
Answer: Its Kd is 360 nM.

Question: For B3, which Kd is on record?
Answer: Its Kd is 117 nM.

Question: How did the Kd turn out when B4 was run?
Answer: The Kd was 329 nM.
